Positions count from the first letter of the chain named.
Columns and labels:
[1] = target: T1, human FcγRI expressed on the cell surface (human, UniProt P12314 16-374); assay: flow cytometry; monomeric IgG on IIA1.6 cells expressing FcγRI
T1 construct: whole, on cells; Co-expressed with the FcR common γ chain
Protocol: (§1) Antibody FcγR binding was measured using either immune complexes or monomeric IgG. Immune complexes were generated by incubating the anti-TNP antibodies (parental or mutant anti-TNP IgG) with TNP-BSA at a 2:1 ratio (40 μg/ml:20 μg/ml) for 30 minutes at 37° C. then 10 minutes at 4° C. […] The cells were washed twice, resuspended in […] PBS/0.5% BSA and 10,000 viable cells analysed in at least three experiments. Monomer IgG binding (MFI) were fitted to a single binding site model to determine binding affinity (KA). Similarly immune complex binding is reported as apparent affinity (K app).

[2] = target: T2, recombinant soluble FcγRIIb (human, UniProt P31994 43-217); assay: BLI (Octet); anti-TNP IgG captured on TNP-BSA-biotin, rsFcγR in solution; global 1:1 Langmuir fit
T2 construct: extracellular domain; also called rsFcγRIIb
T2 sequence (looked up): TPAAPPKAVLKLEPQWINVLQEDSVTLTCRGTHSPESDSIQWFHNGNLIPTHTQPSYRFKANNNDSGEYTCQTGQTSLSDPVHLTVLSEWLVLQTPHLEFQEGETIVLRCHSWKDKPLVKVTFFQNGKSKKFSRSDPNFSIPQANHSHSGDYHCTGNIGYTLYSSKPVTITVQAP
Protocol: Affinity measurements of IgG:FcR interaction using Bio-Layer Interferometry (OCTET) TNP-BSA was reacted with the EZ-Link™ biotinylation reagent (ThermoFisher Scientific) according to the manufacturer's instructions. The resulting TNP-BSA-biotin (5 μg/ml, 30 sec) was captured to ˜0.8 nm on streptavidin BLI probes using an Octet Red96 (ForteBio; Molecular Devices LLC, San Jose, CA, United States of America) then loaded with anti-TNP IgG (4 μg/ml, 75 sec). A baseline was established (60 sec) followed by the association and dissociation (90s) of a concentration series (15 nM to 20 μM) of rsFcγRIIa-R131 or rsFcγRIIb. Regeneration after each initial reaction TNP-BSA-biotin capture and the subsequent binding cycles used 10 mM HCl.

[3] = target: T3, human FcγRIIIa-F158 expressed on the cell surface (human, UniProt P08637 17-254); assay: flow cytometry; immune complexes with TNP-BSA on IIA1.6 cells expressing the FcγR
T3 construct: whole, on cells; Co-expressed with the FcR common γ chain (FcRγ-EGFP)
Protocol: as §1
(§2) The interaction of the mutant IgGs with the human FcγRs on the cell surface was evaluated by flow cytometry and compared to the binding of parental IgG2 or IgG4 as well as to IgG1, the “universal” ligand for all human FcγR. Binding to the low affinity human FcγR (FcγRIIb, FcγRIIa, and FcγRIII) was performed using immune complexes (FIG. 1A-E). Binding to the high affinity FcγRI was determined using monomeric IgG (FIG. 1F). […] Uncomplexed, monomeric IgG1 and IgG4, but not IgG2, bound to the high affinity FcγRI.

[4] = target: T4, human FcγRIIa-H131 expressed on the cell surface (human, UniProt P12318 34-317); assay: as above
T4 construct: whole, on cells
T4 sequence (looked up): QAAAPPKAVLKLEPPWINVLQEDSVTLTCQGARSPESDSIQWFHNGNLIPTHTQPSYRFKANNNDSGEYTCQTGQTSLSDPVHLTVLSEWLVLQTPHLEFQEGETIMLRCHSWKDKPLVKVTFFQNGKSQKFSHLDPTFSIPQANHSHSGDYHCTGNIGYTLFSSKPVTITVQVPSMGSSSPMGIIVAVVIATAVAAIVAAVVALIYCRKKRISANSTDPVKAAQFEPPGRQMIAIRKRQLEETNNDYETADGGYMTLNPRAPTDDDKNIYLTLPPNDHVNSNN
Protocol: as §1, §2

[5] = target: T5, human FcγRIIa-R131 expressed on the cell surface (human, UniProt P12318 34-317); assay: as above
T5 construct: whole, on cells
T5 sequence (looked up): T4 sequence (looked up) with H134R
Protocol: as §1, §2

[6] = target: T6, human FcγRIIIa-V158 expressed on the cell surface (human, UniProt P08637 17-254); assay: as above
T6 construct: whole, on cells; Co-expressed with the FcR common γ chain (FcRγ-EGFP)
Protocol: as §1, §2

T3 sequence (P08637 17-254): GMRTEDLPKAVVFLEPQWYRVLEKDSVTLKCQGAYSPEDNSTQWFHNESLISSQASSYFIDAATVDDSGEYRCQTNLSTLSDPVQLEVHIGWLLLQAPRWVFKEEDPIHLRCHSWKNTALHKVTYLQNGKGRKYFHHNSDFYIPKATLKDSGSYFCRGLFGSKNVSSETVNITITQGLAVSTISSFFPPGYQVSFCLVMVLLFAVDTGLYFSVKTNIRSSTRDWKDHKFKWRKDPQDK
T1 sequence (P12314 16-374): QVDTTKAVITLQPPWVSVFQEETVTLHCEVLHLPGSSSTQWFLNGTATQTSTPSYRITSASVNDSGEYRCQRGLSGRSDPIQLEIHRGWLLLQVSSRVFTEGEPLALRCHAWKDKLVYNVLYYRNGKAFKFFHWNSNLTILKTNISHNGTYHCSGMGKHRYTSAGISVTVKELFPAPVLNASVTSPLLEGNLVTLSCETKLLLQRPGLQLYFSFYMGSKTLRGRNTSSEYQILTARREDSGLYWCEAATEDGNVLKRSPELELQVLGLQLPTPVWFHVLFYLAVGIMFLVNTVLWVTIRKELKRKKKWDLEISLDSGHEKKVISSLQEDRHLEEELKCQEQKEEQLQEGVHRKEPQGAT
T6 sequence (P08637 17-254 F176V): as the sequence (P08637 17-254) above, with F160V counted along it

B1: chimeric anti-TNP human IgG2 (IgG2-WT) (antibody)
heavy: EVQLQESGPSLVKPSQTLSLTCSVTGDSITSGYWNWIRQVPGNKLEYMGFINYSGNTYYNPSLRSRISITRDTSKNQYFLHLNSVTTEDTATYYCARANWDVFAYWGQGTLVTVSAASTKGPSVFPLAPCSRSTSESTAALGCLVKDYFPEPVTVSWNSGALTSGVHTFPAVLQSSGLYSLSSVVTVPSSNFGTQTYTCNVDHKPSNTKVDKTVERKCCVECPPCPAPPVAGPSVFLFPPKPKDTLMISRTPEVTCVVVDVSHEDPEVQFNWYVDGVEVHNAKTKPREEQFNSTFRVVSVLTVVHQDWLNGKEYKCKVSNKGLPAPIEKTISKTKGQPREPQVYTLPPSREEMTKNQVSLTCLVKGFYPSDIAVEWESNGQPENNYKTTPPMLDSDGSFFLYSKLTVDKSRWQQGNVFSCSVMHEALHNHYTQKSLSLSLGK
light: not shown
notes: also called parental IgG2; wild type IgG2
[1]
  binding result: no binding
[2]
  Ka: 59000 M⁻¹
[3]
  binding result: no binding
[4]
  binding result: binds
[5]
  binding result: no binding
[6]
  binding result: no binding
